# Patent US6902885 (APOPTOSIS TECHNOLOGY, dated 2005)
# T1: caspase 9 (UniProt P55211 1-416)
# T1 sequence: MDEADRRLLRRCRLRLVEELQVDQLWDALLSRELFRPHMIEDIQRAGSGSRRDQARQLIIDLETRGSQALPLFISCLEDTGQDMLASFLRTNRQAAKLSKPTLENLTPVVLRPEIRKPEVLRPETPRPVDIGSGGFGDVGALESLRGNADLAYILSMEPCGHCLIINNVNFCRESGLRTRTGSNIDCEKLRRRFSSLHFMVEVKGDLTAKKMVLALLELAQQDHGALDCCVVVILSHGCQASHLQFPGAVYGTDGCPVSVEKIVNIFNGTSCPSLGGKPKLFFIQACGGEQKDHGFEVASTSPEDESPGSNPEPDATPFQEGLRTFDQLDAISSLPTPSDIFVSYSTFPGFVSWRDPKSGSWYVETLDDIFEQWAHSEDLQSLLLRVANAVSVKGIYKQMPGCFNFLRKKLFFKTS
# B1: pUL37Smyc (HCMV pUL37S fused at its C-terminus with a c-myc-epitope tag) (other)
# chain: MSPVYVNLLGSVGLLAFWYFSYRWIQRKRLEDPLPPWLRKKKACALTRRSRHRLRRQHGVIDGENSETERSVDLVAALLAEAGEESVTEDTEREDTEEEREDEEEENEARTPEVNPIDAEGLSGLAREACEALKKALRRHRFLWQRRQRARMLQHNGPQQSHQ
# notes: range 410-419; also called pUL37x1; pUL37x1myc
# Target: T1, caspase 9
# Assay: pull-down: pUL37Smyc held by anti-myc antibody on protein G agarose beads, 35S-labelled in vitro translated protein, SDS-PAGE
binder,measurement,value
B1,binding result,no binding
